{"source": "patent US20240190999A1", "about": "(Molecular Partners, published 2024)", "binders": {"B1": {"name": "bispecific construct #49 (designed binder)", "chain": "MRGSHHHHHHGSDLGEKLLVAALYGQDDEVRILLAAGADVNAKDQWGLTPLHKAALQGHLEIVEVLLKAGADVNAKDERGHTPLHWAARFGHLEIVEVLLKAGADVNAQDQKGYTPADLAALWGHEDIAEVLQKAAGSPTPTPTTPTPTPTTPTPTPTGSDLGKKLLVAANVGQDDEVRILLAAGADVNAKDYHGYTPLHHAATYGHLEIVEVLLKAGADVNAKDQTGLTPLHLAAAKGHLEIVEVLLKAGADVNAQDHHGYTPADLAAFVGHEDIAVVLQKLN", "notes": "56 is used; also called FAP-4-1BB bispecific construct #49"}, "B2": {"name": "Multispecific binding protein B (MpB) (designed binder)", "chain": "MRGSHHHHHHGSDLGKKLLEAARAGQDDEVRELLKAGADVNAKDYFSHTPLHLAARNGHLKIVEVLLKAGADVNAKDFAGKTPLHLAAADGHLEIVEVLLKAGADVNAQDIFGKTPADIAADAGHEDIAEVLQKAAGSPTPTPTTPTPTPTTPTPTPTGSDLGEKLLVAALYGQDDEVRELLKAGADVNAKDQWGLTPLHKAALQGHLEIVEVLLKAGADVNAKDERGHTPLHWAARFGHLEIVEVLLKAGADVNAQDQKGYTPADLAALWGHEDIAEVLQKAAGSPTPTPTTPTPTPTTPTPTPTGSDLGQKLLKAAQEGQDDEVRELLKAGADVNAKDLRGITPLHVAAWQGHLEIVEVLLKAGADVNAKDSKGETPLHLAAFRGHLEIVEVLLKAGADVNAQDQQGETPADLAALAGHVDIAEVLQKAAGSPTPTPTTPTPTPTTPTPTPTGSDLGQKLLKAAQEGQDDEVRELLKAGADVNAKDLRGITPLHVAAWQGHLEIVEVLLKAGADVNAKDSKGETPLHLAAFRGHLEIVEVLLKAGADVNAQDQQGETPADLAALAGHVDIAEVLQKAAGSPTPTPTTPTPTPTTPTPTPTGSDLGKKLLEAARAGQDDEVRELLKAGADVNAKDYFSHTPLHLAARNGHLKIVEVLLKAGADVNAKDFAGKTPLHLAAADGHLEIVEVLLKAGADVNAQDIFGKTPADIAADAGHEDIAEVLQKAA"}, "B3": {"name": "His-MpA (His-tagged version of MpA) (designed binder)", "chain": "GSDLGKKLLEAARAGQDDEVRELLKAGADVNAKDYFSHTPLHLAARNGHLKIVEVLLKAGADVNAKDFAGKTPLHLAAADGHLEIVEVLLKAGADVNAQDIFGKTPADIAADAGHEDIAEVLQKAAGSPTPTPTTPTPTPTTPTPTPTGSDLGKKLLEAARAGQDDEVRELLKAGADVNAKDVLGWTPLHLAAFEGHLEIVEVLLKAGADVNAKDKKGWTPLQLAARTGHLEIVEVLLKAGADVNAKDHIGATPLHLAAWQGHPEIVEVLLKAGADVNAQDKSGKTPADLAADAGHEDIAEVLQKAAGSPTPTPTTPTPTPTTPTPTPTGSDLGQKLLKAAQEGQDDEVRELLKAGADVNAKDLRGITPLHVAAWQGHLEIVEVLLKAGADVNAKDSKGETPLHLAAFRGHLEIVEVLLKAGADVNAQDQQGETPADLAALAGHVDIAEVLQKAAGSPTPTPTTPTPTPTTPTPTPTGSDLGQKLLKAAQEGQDDEVRELLKAGADVNAKDLRGITPLHVAAWQGHLEIVEVLLKAGADVNAKDSKGETPLHLAAFRGHLEIVEVLLKAGADVNAQDQQGETPADLAALAGHVDIAEVLQKAAGSPTPTPTTPTPTPTTPTPTPTGSDLGKKLLEAARAGQDDEVRELLKAGADVNAKDYFSHTPLHLAARNGHLKIVEVLLKAGADVNAKDFAGKTPLHLAAADGHLEIVEVLLKAGADVNAQDIFGKTPADIAADAGHEDIAEVLQKAA"}, "B4": {"name": "bispecific construct #46 (designed binder)", "chain": "MRGSHHHHHHGSDLGEKLLVAALYGQDDEVRILLAAGADVNAKDQWGLTPLHKAALQGHLEIVEVLLKAGADVNAKDERGHTPLHWAARFGHLEIVEVLLKAGADVNAQDQKGYTPADLAALWGHEDIAEVLQKAAGSPTPTPTTPTPTPTTPTPTPTGSDLGRKLLQAAQLGQDDEVRELLKAGADVNAKDSRGITPLHVAAWQGHLEIVEVLLKASADVNAKDHAGITPLHLAAFLGHLEIVEVLLKAGADVNAQDQEGRTPADLAALQGHEDIAKVLQKLN", "notes": "56 is used; also called FAP-4-1BB bispecific construct #46"}}, "key": {"[1]": {"target": "T1, human 4-1BB on transfected HT1080 NF-kB-luciferase reporter cells (human, UniProt Q07011 24-255)", "T1 sequence (Q07011 24-255 limits assumed)": "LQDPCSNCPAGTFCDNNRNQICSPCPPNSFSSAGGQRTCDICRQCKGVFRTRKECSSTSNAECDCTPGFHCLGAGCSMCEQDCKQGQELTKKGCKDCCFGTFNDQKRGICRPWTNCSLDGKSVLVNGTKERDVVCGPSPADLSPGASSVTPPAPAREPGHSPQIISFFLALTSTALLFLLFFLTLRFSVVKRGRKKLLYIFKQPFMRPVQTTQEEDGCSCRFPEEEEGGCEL", "experiment": "cell-based or functional assay"}, "[2]": {"target": "T2, biotinylated human 4-1BB (bio.h4-1BB) (human, UniProt Q07011 24-186, limits assumed, biotinylated (site not stated))", "T2 construct": "also called CD137", "T2 sequence (Q07011 24-186 limits assumed)": "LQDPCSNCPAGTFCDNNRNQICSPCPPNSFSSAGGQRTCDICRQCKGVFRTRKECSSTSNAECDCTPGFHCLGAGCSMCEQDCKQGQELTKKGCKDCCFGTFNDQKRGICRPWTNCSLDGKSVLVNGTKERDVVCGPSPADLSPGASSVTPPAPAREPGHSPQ", "experiment": "SPR (ProteOn XPR36), biotinylated h4-1BB immobilised on GLC chip, construct as analyte", "method": "(§1) Assay set-up: Briefly, SPR measurements were performed using a ProteOn XPR36 instrument (BioRad) as described above. Biotinylated human and cynomolgus 4-1BB and human FAP were immobilized either directly or indirectly via NeutrAvidin (˜6000 RU pre-coated) on a GLC chip to reach 600 RU, 700 RU and 2000 RU, respectively. The interaction of FAP-4-1BB bispecific constructs to the coated targets was measured by injecting the bispecific constructs in a serial dilution of 50, 16.7, 5.6, 1.9 and 0.6 nM with an association of 120 s and dissociation of 1800 s using a constant flow rate of 30 μl/min. Targets were regenerated between the individual measurements using 10 mM glycine pH 2 and 124 mM H₃PO₄. The signals were double referenced against the running buffer (PBST) treated control lane."}, "[3]": {"target": "T1, human 4-1BB on transfected HT1080 …", "experiment": "cell-based or functional assay", "remark": "listed apart in the source"}, "[4]": {"target": "T3, human fibroblast activation protein (hFAP) (human, UniProt Q12884 26-760, limits assumed)", "T3 construct": "Recombinant soluble protein; also called human FAP; rhFAP", "T3 sequence (Q12884 26-760 limits assumed)": "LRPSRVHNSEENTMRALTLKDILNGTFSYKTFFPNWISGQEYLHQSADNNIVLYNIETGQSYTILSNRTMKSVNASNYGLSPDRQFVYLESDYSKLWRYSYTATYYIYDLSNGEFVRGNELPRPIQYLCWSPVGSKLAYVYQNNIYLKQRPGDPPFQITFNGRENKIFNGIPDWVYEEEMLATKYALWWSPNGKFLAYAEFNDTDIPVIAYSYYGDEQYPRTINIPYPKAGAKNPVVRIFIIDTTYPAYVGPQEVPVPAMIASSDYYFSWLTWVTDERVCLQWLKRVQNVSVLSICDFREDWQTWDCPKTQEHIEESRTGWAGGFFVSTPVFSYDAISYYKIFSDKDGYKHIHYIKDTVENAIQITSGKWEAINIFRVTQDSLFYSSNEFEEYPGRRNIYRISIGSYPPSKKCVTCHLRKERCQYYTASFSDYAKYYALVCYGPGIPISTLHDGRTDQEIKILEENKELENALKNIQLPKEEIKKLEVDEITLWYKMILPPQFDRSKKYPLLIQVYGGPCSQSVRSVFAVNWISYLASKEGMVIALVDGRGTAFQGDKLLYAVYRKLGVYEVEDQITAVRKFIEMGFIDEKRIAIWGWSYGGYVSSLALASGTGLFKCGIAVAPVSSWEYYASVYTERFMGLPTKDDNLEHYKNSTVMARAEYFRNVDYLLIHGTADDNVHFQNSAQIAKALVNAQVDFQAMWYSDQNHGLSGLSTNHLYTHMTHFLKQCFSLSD", "experiment": "SPR (ProteOn XPR36), hFAP immobilised on GLC chip, construct as analyte", "method": "as §1"}, "[5]": {"target": "T1, human 4-1BB on transfected HT1080 …", "experiment": "cell-based or functional assay", "remark": "listed apart in the source"}, "[6]": {"target": "T4, human 4-1BB on primary human CD8 T cells (human, UniProt Q07011 24-255)", "T4 sequence (Q07011 24-255 limits assumed)": "as the sequence (Q07011 24-255 limits assumed) above", "experiment": "cell-based or functional assay"}, "[7]": {"target": "T4, human 4-1BB on primary human CD8 T cells", "experiment": "cell-based or functional assay", "remark": "listed apart in the source"}}, "data": [{"binder": "B1", "values": [{"measurement": "EC50, 4-1BB activation in HT1080 reporter cells in presence of FAP-expressing CHO cells (Population 2)", "setting": "[1]", "result": 1.04, "unit": "nM"}, {"measurement": "Kd", "setting": "[2]", "result": 0.86, "unit": "nM"}, {"measurement": "EC50, 4-1BB activation in HT1080 reporter cells in presence of FAP-expressing CHO cells (Population 1)", "setting": "[3]", "result": 0.91, "unit": "nM"}, {"measurement": "Kd", "setting": "[4]", "result": 0.17, "unit": "nM"}, {"measurement": "EC50, 4-1BB activation in HT1080 reporter cells in presence of FAP-beads", "setting": "[5]", "result": 6.52, "unit": "nM"}]}, {"binder": "B2", "values": [{"measurement": "EC50, IFNγ production by primary human CD8 T cells (anti-CD3 plus plate-coated hFAP)", "setting": "[6]", "result": 1.54, "unit": "nM"}, {"measurement": "EC50, IFNγ secretion of human CD8 T cells (plate-coated hFAP)", "setting": "[7]", "result": "1 to 2", "unit": "nM"}]}, {"binder": "B3", "values": [{"measurement": "EC50, IFNγ production by primary human CD8 T cells (anti-CD3 plus plate-coated hFAP)", "setting": "[6]", "result": 2.37, "unit": "nM"}, {"measurement": "EC50, IFNγ secretion of human CD8 T cells (plate-coated hFAP)", "setting": "[7]", "result": "1 to 3", "unit": "nM"}]}, {"binder": "B4", "values": [{"measurement": "EC50, 4-1BB activation in HT1080 reporter cells in presence of FAP-expressing CHO cells (Population 2)", "setting": "[1]", "result": 0.37, "unit": "nM"}, {"measurement": "Kd", "setting": "[2]", "result": 1.15, "unit": "nM"}, {"measurement": "EC50, 4-1BB activation in HT1080 reporter cells in presence of FAP-expressing CHO cells (Population 1)", "setting": "[3]", "result": 0.73, "unit": "nM"}, {"measurement": "Kd", "setting": "[4]", "result": 0.27, "unit": "nM"}, {"measurement": "EC50, 4-1BB activation in HT1080 reporter cells in presence of FAP-beads", "setting": "[5]", "result": 5.85, "unit": "nM"}]}]}
